The target in the experiment is SCNN1A, Sodium Channel Epithelial 1 Alpha Subunit (Isoform 1, UniProt P37088-1) (human) (UniProt P37088). Kind of experiment: cell-based or functional assay.

The values below come from patent publication US20200316124A1.

Chain of SCNN1A, Sodium Channel Epithelial 1 Alpha Subunit (P37088 whole entry, canonical isoform, one chain of several): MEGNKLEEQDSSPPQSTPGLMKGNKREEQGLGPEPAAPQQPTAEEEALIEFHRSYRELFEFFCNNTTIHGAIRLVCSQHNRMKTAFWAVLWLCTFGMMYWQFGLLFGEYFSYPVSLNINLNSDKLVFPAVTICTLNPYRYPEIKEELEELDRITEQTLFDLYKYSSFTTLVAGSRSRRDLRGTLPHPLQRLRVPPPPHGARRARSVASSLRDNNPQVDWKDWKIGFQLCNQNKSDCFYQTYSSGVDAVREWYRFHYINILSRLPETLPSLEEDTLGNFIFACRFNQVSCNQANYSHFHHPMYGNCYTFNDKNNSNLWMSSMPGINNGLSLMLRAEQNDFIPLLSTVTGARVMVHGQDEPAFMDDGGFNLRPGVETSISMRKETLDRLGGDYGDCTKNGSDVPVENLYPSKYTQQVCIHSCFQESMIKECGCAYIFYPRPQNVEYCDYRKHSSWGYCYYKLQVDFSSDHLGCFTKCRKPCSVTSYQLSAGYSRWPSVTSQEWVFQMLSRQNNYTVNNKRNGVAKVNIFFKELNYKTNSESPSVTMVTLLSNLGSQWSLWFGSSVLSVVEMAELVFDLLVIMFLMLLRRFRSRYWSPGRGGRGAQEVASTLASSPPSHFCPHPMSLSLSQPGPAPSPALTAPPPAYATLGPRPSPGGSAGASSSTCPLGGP

In turn, “SW.3G1 T-cell receptor (γ3δ1 TCR, TRGV3/TRDV1) of T-cell clone SW.3G1” gave a killing in long term killing assay, LCL.174 wildtype cells of 100% and a lysis in long term killing assay, LCL.174 SCNN1A knockout cell lines (gRNA-1 or gRNA-2) below 5%.
